# Test results as given in patent US20240197872A1.
# Biological target: CD20 on CD20-positive human lymphoma cell lines Raji and Daudi (human) (UniProt P11836)
# Experiment: cell-based or functional assay
# UniProt P11836, sequence (P11836 whole entry): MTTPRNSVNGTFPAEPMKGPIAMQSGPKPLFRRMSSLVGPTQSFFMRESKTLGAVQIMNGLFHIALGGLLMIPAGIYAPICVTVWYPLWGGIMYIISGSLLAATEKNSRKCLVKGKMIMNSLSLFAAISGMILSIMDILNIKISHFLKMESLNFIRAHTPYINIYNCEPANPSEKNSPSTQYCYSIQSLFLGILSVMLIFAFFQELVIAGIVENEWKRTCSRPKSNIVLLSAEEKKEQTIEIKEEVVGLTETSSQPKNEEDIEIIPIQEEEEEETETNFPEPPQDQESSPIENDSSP
substance,measurement,value
"rituximab (commercially available anti-CD20 antibody, Rituxan), conjugated to an ssDNA linker and hybridised to the surface of gdT cells (ACE-gdT-CD20 cells)","percentage of lysed target cells, Daudi, E:T 2:1 (Ctrl-gdT cells without rituximab: 19.68%)",41.2%
same,"percentage of lysed target cells, Daudi, E:T 10:1 (Ctrl-gdT cells without rituximab: 43.66%)",71.2%
same,"percentage of lysed target cells, Raji, E:T 10:1 (Ctrl-gdT cells without rituximab: 43.13%)",69.4%
